Source: PMC7674511 (2020)

B1: FLAG-BAG6(1-266aa) [not stated] / GFP-LC3B [not stated] (parent complex)
chain 1: MEPNDSTSTAVEEPDSLEVLVKTLDSQTRTFIVGAQMNVKEFKEHIAASVSIPSEKQRLIYQGRVLQDDKKLQEYNVGGKVIHLVERAPPQTHLPSGASSGTGSASATHGGGSPPGTRGPGASVHDRNANSYVMVGTFNLPSDGSAVDVHINMEQAPIQSEPRVRLVMAQHMIRDIQTLLSRMECRGGPQPQHSQPPPQPPAVTPEPVALSSQTSEPVESEAPPREPMEAEEVEERAPAQNPELTPGPAPAGPTPAPETNAPNHPS
chain 2: not shown
B2: BAG6 LIR1 peptide (residues 124-143) [modified: FITC label (position not stated), told for the anisotropy assay; FITC label (position not stated), told for the anisotropy assay] [not stated] / LC3B-I [not stated] (parent complex)
chain 1: VHDRNANSYVMVGTFNLPSD
chain 2: not shown

Variants of: B1
Assay: co-immunoprecipitation (FLAG pulldown with anti-FLAG beads, immunoblot); HEK293FT cells transfected with GFP-LC3B and FLAG-BAG6(1-266aa) constructs

Row | Variant | ratio to parent
1 | chain 1 Y132A, chain 1 V133A, chain 1 M134A, chain 1 V135A | 0.23
2 | chain 1 Y132A, chain 1 V135A | 0.79

Variants of: B2
Assay: fluorescence anisotropy; FITC-labeled peptide 1 μM; read at the highest LC3B-I concentration plotted (about 48 μM); read off a plot

Row | Variant | response
3 | chain 1 Y9A, chain 1 V12A | ~0.001
